For three molecules, Kd and stoichiometry N results are on record in article PMC3953389, “Dimerization of VirD2 Binding Protein Is Essential for Agrobacterium Induced Tumor Formation in Plants” (PLoS Pathogens, 2014).

The target of assay [1] is T1, VBP (VirD2-binding protein) (Agrobacterium fabrum, UniProt Q7CW19).
T1 construct: gene Atu4856; full-length VBP with 6His tag (pET32a, E. coli BL21(DE3)); homodimer 75 kDa; predicted NT domain aa 10-133, HEPN domain aa 159-279
Nature of the assay: isothermal titration calorimetry.

In assay [2] the target is C-terminal (HEPN) domain of VBP (Agrobacterium tumefaciens C58). The assay is described as follows: AUC; sedimentation velocity, 1 mg/ml, 40,000 rpm, 24°C, absorbance at 280 nm, Sedfit.
For assay [3] the target is unchanged. The assay is described as follows: SEC; size-exclusion chromatography of the purified protein, apparent mass against molecular weight standards; 200 mM NaCl buffers (VBP: 20 mM Tris-HCl pH 8.0, 5% glycerol; HEPN: 30 mM CHES pH 9.0, 5% glycerol; NT: 30 mM Tris-HCl pH 7.5).
Assay [4] deals with VirD2-binding protein (VBP), full-length, wild type, 6His-tagged (Agrobacterium tumefaciens C58). The assay is described as follows: AUC; sedimentation velocity, 1 mg/ml, 40,000 rpm, 24°C, absorbance at 280 nm, Sedfit.
Assay [5] shares this target. The assay is described as follows: SEC; size-exclusion chromatography of the purified protein, apparent mass against molecular weight standards; 200 mM NaCl buffers (VBP: 20 mM Tris-HCl pH 8.0, 5% glycerol; HEPN: 30 mM CHES pH 9.0, 5% glycerol; NT: 30 mM Tris-HCl pH 7.5).

Molecule `Nc1ncnc2c1ncn2[C@@H]1O[C@H](COP(=O)(O)OP(=O)(O)NP(=O)(O)O)[C@@H](O)[C@H]1O` [AMPPNP] gave a Kd in assay [1] of 2 µM. In other words, the single-digit micromolar range.

As for “C-terminal (HEPN) domain of VBP (domain or fragment)”, the stoichiometry N in assay [2] and in assay [3] was 2 throughout.

Turning to “VirD2-binding protein (VBP), full-length, wild type, 6His-tagged (natural protein)”, the stoichiometry N in assay [4] and in assay [5] was 2 in each case.
